This series deals with the molecule itself. Kind of series: cryo-EM structure.

B1: full-length rat TRPV6 (natural protein, UniProt Q9R186 41-767, looked up)
chain: MGWSLPKEKGLILCLWNKFCRWFHRRESWAQSRDEQNLLQQKRIWESPLLLAAKENNVQALIKLLKFEGCEVHQKGAMGETALHIAALYDNLEAAMVLMEAAPELVFEPMTSELYEGQTALHIAVINQNVNLVRALLARGASVSARATGSVFHYRPHNLIYYGEHPLSFAACVGSEEIVRLLIEHGADIRAQDSLGNTVLHILILQPNKTFACQMYNLLLSYDGGDHLKSLELVPNNQGLTPFKLAGVEGNIVMFQHLMQKRKHIQWTYGPLTSTLYDLTEIDSSGDDQSLLELIVTTKKREARQILDQTPVKELVSLKWKRYGRPYFCVLGAIYVLYIICFTMCCVYRPLKPRITNRTNPRDNTLLQQKLLQEAYVTPKDDLRLVGELVSIVGAVIILLVEIPDIFRLGVTRFFGQTILGGPFHVIIVTYAFMVLVTMVMRLTNSDGEVVPMSFALVLGWCNVMYFARGFQMLGPFTIMIQKMIFGDLMRFCWLMAVVILGFASAFYIIFQTEDPDELGHFYDYPMALFSTFELFLTIIDGPANYDVDLPFMYSITYAAFAIIATLLMLNLLIAMMGDTHWRVAHERDELWRAQVVATTVMLERKLPRCLWPRSGICGREYGLGDRWFLRVEDRQDLNRQRIRRYAQAFQQQDDLYSEDLEKDSGEKLEMARPFGAYLSFPTPSVSRSTSRSSTNWDRLRQGALRKDLQGIINRGLEDGEGWEYQI
Turning to B1, the stoichiometry N (in general, a count of units in the complex or per binding partner) worked out at 4 subunits.

The values above are taken from publication PMC6093632 (Science Advances, 2018).
